Results as given in PMC8132391.

Assays:
[1] = target: Bn86287 (104-607 amino acids), COG4337 protein of Bigelowiella natans (Bigelowiella natans); test: SEC-MALS; Superdex 200 increase 10/300 GL, 293 K, 20 mM Tris-HCl pH 8.0, 100 mM NaCl; Bn86287 3.7 mg/ml and all2909 4.9 mg/ml, 30 ul injected
[2] = target: all2909, COG4337 protein of Anabaena sp. PCC 7120, without N-terminal leader (Anabaena sp. PCC 7120) (UniProt Q8YT18); test: as above

| stoichiometry N [1] | stoichiometry N [2] | Substance |
| --- | --- | --- |
| 2 | – | Bn86287 (104-607 amino acids), COG4337 protein of Bigelowiella natans (enzyme) |
| – | 4 | all2909, COG4337 protein of Anabaena sp. PCC 7120, without N-terminal leader (from UniProt Q8YT18 31-205) (enzyme) |
